Test results as given in publication PMC3098244.

Key:
K48-linked diubiquitin = K48-linked diubiquitin (UniProt P0CG48); assay: ITC; details: domain or fragment
K63-linked diubiquitin = K63-linked diubiquitin (UniProt P0CG48); assay: ITC; details: domain or fragment

Sequence of GB1-HSJ1a-UIM12 (UIM domain of HSJ1a, residues 206-272, fused to GB1) (P25686 206-272): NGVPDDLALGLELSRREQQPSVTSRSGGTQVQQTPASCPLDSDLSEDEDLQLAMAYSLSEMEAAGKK

- Kd (K48-linked diubiquitin): 57 µM
- Kd (K63-linked diubiquitin): 153 µM
Substance: GB1-HSJ1a-UIM12 (UIM domain of HSJ1a, residues 206-272, fused to GB1) (from UniProt P25686-2 206-272)
